Biological target: T1, Soluble IGF-1R (R&D Systems, Cat. # 391-GR) (UniProt P08069 31-935, limits assumed)
T1 construct: extracellular domain; bought; also called sIGF-1R
Experiment: phage ELISA ratios compared

Row | Binder | IGF-1R/IR ratio comparison
1 | LGYQEPFQQNFYDWFVRQVSGAENAG [H2CA-3-E8-IGFR] | 2.9
2 | GCVVEWQKWHGASDPFYHKLSELGGCS [B6Hα-3-F10-IR] | 4.6
3 | APDPSDFQEIFYDWFVRQVSRMPGGG [H2CA-1-A3-IGFR] | 5.1
4 | EAASLGSQDRNFYDWFVRQVV [A6S-2-D11-IR] | 2.8
5 | SQAGSAFYAWFDQVLRTVHSA [20E2Bβ-4-G6-IR] | 3.3
6 | VNQSGSIHENFYDWFERQVSHQRGVR [H2CA-4-F10-IGFR] | 5.9
7 | RGMKEEVLVGGSTDPFYHKLSELLQGS [B6Hα-3-F11-IR] | 11.7
8 | LQPCSGFYECIERLIGVKLSG [20E2Bβ-4-G7-IR] | 15.8
9 | GFREGNFYEWFQAQVT [E4Dα-4-H2-IR] | 4.1
10 | LRRQAPVEENFYDWFVRQVSGDRVGG [H2CA-3-D7-IGFR] | 3.7
11 | YRGMLVLGRSSDGAGKVAFERPARIGQTVFAVNFYDWFV [A6L-0-E6-IR] | 17
12 | QPDHSYFYSLLQELVGSEERL [20E2B-4-F9-IGFR] | 7.7
13 | QPAPDGFYSALMKLIGRGGVS [20E2B-3-C8-IGFR] | 8.9
14 | FYVQQWGHENFYDWFDRQVSQSGGAG [H2CA-4-F1-IGFR] | 3.8
15 | QAVQPGFHEEFYDWFVRQVSTGVGGG [H2CA-4-H4-IGFR] | 4.2
16 | SSIGGGFHENFYDWFSRQLSQSPPLK [H2CA-4-F7-IGFR] | 4.1
17 | TLDGGSFEEQFYDWFVRQLSYRTNPD [H2CA-4-G11-IGFR] | 3.9
18 | PPLASDLDVQFYGWFVQQVSPPGRGG [H2CA-2-B3-IGFR] | 3.6

Row | Binder | IGF-1R/IR ratio comparison
19 | LRIANLFYQRLWDLAFGGGG [20E2B-3-E8-IGFR] | 11.1
20 | RAGSSDFHEDFYEWFVRQVSLSLKGK [H2CA-2-B9-IGFR] | 4.2
21 | IIGGFYSYFNSVLRLGT [NNRPγ-4-A1-IR] | 6
22 | RCGRELYHSTFYDWFDRQVAGRTCPS [H2CA-1-A7-IGFR] | 3.7
23 | GFREGSFYDWFQAQVT [E4Dα-2-D11-IR] | 3.4
24 | MMVVDGFYDALHQLVVAQSLG [20E2A-3-D10-IGFR] | 3.9
25 | RGAVAGFHDQFYDWFDRQVSRVHKFG [H2CA-4-H9-IGFR] | 3
26 | GGTKAVAKVGTRDDPFYHKLSELLQGS [B6Hα-4-G8-IR] | 3.6
27 | GGTEVDFYRALERLVRGQLGL [20E2B-3-D8-IGFR] | 11.3
28 | YRGMLVLGRISGGAGKAASERPARIGQKVSAVNFYDWFV [A6L-0-H3-IR] | 13
29 | AICDAGFHEHFYDWFALQVSDCGRQS [H2CA-2-B11-IGFR] | 3
30 | SSYGCDGFYLMLFSLGLVASQELEC [20C-3-A1-IGFR] | 13.7
31 | NYRRQVFNGNFYDWFDRQVFSLVTPG [H2CA-3-D8-IGFR] | 4
32 | SSCDGAGHESFYEWFVRQVSGCRSV [H2CA-3-C8-IGFR] | 4.8
33 | RCEEKQAEVGPSSDPFYHKMSELLGCR [B6Hα-3-E9-IR] | 14.2
34 | CCLLCRFQQNFYDWFVCQGISRLRPL [H2CA-2-B4-IGFR] | 3.6
35 | QSPVGSSHEDFYDWFFRQVAQSGAHQ [H2CA-3-D6-IGFR] | 4
36 | GAPVDQLHEDFYDWFVRQVSQAATG [H2CA-2-B2-IGFR] | 3.5

Biological target: T2, soluble human insulin receptor-immunoglobulin heavy chain chimera (human, UniProt P06213 28-956)
T2 construct: extracellular domain; Heterotetramer; also called IR; sIR-Fc; not shown: immunoglobulin heavy chain constant domains replacing the transmembrane and intr
Experiment: phage ELISA ratios compared

Row | Binder | IR/IGF-1R ratio comparison
37 | LGYQEPFQQNFYDWFVRQVSGAENAG [H2CA-3-E8-IGFR] | 0.3
38 | APDPSDFQEIFYDWFVRQVSRMPGGG [H2CA-1-A3-IGFR] | 0.2
39 | EAASLGSQDRNFYDWFVRQVV [A6S-2-D11-IR] | 0.4
40 | HLADGQFHEKFYDWFERQISSRCNDC [H2CA-3-E11-IGFR] | 0.5
41 | VNQSGSIHENFYDWFERQVSHQRGVR [H2CA-4-F10-IGFR] | 0.2
42 | GRTMAVMAAGGPDDPFYHKLSELVQGG [B6Hα-2-D6-IR] | 0.2
43 | GFREGNFYEWFQAQVT [E4Dα-4-H2-IR] | 0.2
44 | LRRQAPVEENFYDWFVRQVSGDRVGG [H2CA-3-D7-IGFR] | 0.3
45 | FYVQQWGHENFYDWFDRQVSQSGGAG [H2CA-4-F1-IGFR] | 0.3
46 | QAVQPGFHEEFYDWFVRQVSTGVGGG [H2CA-4-H4-IGFR] | 0.2
47 | SSIGGGFHENFYDWFSRQLSQSPPLK [H2CA-4-F7-IGFR] | 0.2
48 | TLDGGSFEEQFYDWFVRQLSYRTNPD [H2CA-4-G11-IGFR] | 0.3
49 | PPLASDLDVQFYGWFVQQVSPPGRGG [H2CA-2-B3-IGFR] | 0.3
50 | RAGSSDFHEDFYEWFVRQVSLSLKGK [H2CA-2-B9-IGFR] | 0.2
51 | RCGRELYHSTFYDWFDRQVAGRTCPS [H2CA-1-A7-IGFR] | 0.3
52 | GFREGSFYDWFQAQVT [E4Dα-2-D11-IR] | 0.3
53 | CCTTEMVVMDARDDPFYHKLSELVTGG [B6Hα-1-B5-IR] | 0
54 | RGCNDDGGKGWSDDPFYHKLSELICGG [B6Hα-1-A2-IR] | 0.1
55 | AICDAGFHEHFYDWFALQVSDCGRQS [H2CA-2-B11-IGFR] | 0.3
56 | RGIVAMVEATEVGSDHDPFYHKLSELVQGS [B6Hα-2-C7-IR] | 0.1
57 | NYRRQVFNGNFYDWFDRQVFSLVTPG [H2CA-3-D8-IGFR] | 0.3
58 | SSCDGAGHESFYEWFVRQVSGCRSV [H2CA-3-C8-IGFR] | 0.2
59 | CCLLCRFQQNFYDWFVCQGISRLRPL [H2CA-2-B4-IGFR] | 0.3
60 | QSPVGSSHEDFYDWFFRQVAQSGAHQ [H2CA-3-D6-IGFR] | 0.3
61 | GAPVDQLHEDFYDWFVRQVSQAATG [H2CA-2-B2-IGFR] | 0.3

From US6875741 (Novo Nordisk, dated 2005)
